Source: publication PMC3279196 (Journal of Molecular Biology, 2011)
Read-outs that look alike come from different tables or passages of the source.

Experiments:
[1] = target: T1, CheW from Thermotoga maritima (T. maritima, UniProt Q56311 1-151); assay: NMR titration
T1 sequence (looked up): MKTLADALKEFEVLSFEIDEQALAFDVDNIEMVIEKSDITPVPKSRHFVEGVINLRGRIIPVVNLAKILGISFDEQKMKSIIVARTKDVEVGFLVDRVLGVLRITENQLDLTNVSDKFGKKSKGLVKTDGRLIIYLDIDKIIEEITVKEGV

static light scattering = target: the molecule itself; assay: static light scattering
[2] = target: T1, CheW from Thermotoga maritima; assay: NMR titration; remark: listed apart in the source

B1: TM0014(90-206) with N-terminal tyrosine and His5 tag (domain or fragment, T. maritima, UniProt Q7DFA3 90-206, looked up)
chain: KSGTNVDQIVERVKEASSQIGETLENIRSIEKLIQNIMRIARETNILALNATIEAARAGEAGKGFMIVANEVQNLSNETNEVTKQIVEKAREILESSQRSLENLEFMANLFETVGKT
For B1, the Kd [1] was ~1200 µM, the “stoichiometry N” value (static light scattering) was 2 and the Kd [2] was ~300 µM.
